From patent US20210032365A1 (Chugai, published 2021) come the findings set out here.

The target in assay [1] is T1, human C1s (human, UniProt P09871 16-688).
T1 construct: Analyte in the Biacore assays; also called hC1s; serum-derived human C1s (CompTech)
T1 sequence: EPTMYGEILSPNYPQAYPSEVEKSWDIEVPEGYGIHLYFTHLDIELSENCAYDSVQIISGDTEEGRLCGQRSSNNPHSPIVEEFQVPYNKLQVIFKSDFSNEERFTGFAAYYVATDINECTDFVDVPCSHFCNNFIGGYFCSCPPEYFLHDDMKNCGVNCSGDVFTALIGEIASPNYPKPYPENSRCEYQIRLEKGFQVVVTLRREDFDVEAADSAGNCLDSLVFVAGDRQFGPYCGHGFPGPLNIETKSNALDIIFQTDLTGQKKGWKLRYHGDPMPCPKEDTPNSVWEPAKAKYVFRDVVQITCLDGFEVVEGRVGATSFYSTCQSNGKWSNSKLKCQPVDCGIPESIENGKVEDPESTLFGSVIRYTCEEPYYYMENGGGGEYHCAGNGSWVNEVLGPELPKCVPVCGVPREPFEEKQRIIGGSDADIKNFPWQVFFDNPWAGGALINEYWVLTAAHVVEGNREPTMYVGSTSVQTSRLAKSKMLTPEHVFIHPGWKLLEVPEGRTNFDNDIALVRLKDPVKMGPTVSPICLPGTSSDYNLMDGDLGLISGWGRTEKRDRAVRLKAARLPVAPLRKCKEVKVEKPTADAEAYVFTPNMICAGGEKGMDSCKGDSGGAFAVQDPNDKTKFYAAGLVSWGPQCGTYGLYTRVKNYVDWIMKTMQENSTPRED
The assay is described as follows: SPR (Biacore T200, 37C), Ab captured on protein A/G; pH 5.8, 1.2 mM Ca. An outline of the steps: (§1)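 Antibody captured on protein A/G (~200 RU) on Biacore T200 at 37C; serum-derived or recombinant human C1s injected at 50 nM, then dissociation. KD measured at pH 7.4 with 1.2 mM Ca and at pH 5.8 with 1.2 mM or 3 uM Ca; KD ratios pH 5.8/pH 7.4 calculated.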

For assay [2], the target named is T1, human C1s. Put plainly: SPR; KD at pH 5.8 (3 uM Ca) over KD at pH 7.4 (1.2 mM Ca). Summed up: as §1
The target in assay [3] is T1, human C1s. Put plainly: SPR (Biacore T200, 37C), Ab captured on protein A/G; pH 5.8, 3 uM Ca. An outline of the steps:
as §1
On the technique in general: SPR reads the build-up and loss of mass on a sensor chip optically.

The target of assay [4] is T1, human C1s. Put plainly: SPR; KD at pH 5.8 (1.2 mM Ca) over KD at pH 7.4 (1.2 mM Ca). Summed up: as §1

The term Kd denotes a measure of binding affinity in units of concentration. As a reminder, the koff is a measure of how fast the partners let go of each other. A word on the kon: it is the second-order rate constant of association.

B1: C1_IPN92H0279-SG4GK/IPN93L0091-SK1 (antibody, human IgG4 S228P, kappa, name in Kabat numbering, V domains shown)
VH: EVMLVESGGGLVKPGGSLRLSCAASGFTFSNYAMSWVRQAPGKGLEWVATISSGGSHTYELDSVKERFTISRDNSKDTLYLQMNSLRAEDTALYYCARLFTKHAMDYWGQGTLVTVSS
VL: QIVLTQSPATLSLSPGERATLSCTASSSVSSSRLHWYQQKPGKAPKLWIYSTSNLASGVPSRFSGSGSGTDYTLTISSLQPEDFATYYCHQYYRLHPITFGQGTKLEIKR
notes: Substitutions from IPN009VH2 / IPN009VK3, Kabat numbering; also called IPN92H0279/IPN93L0091
Consider B1, for which, in assay [1], the Kd was 20 nM, the koff is 0.00684 s⁻¹ and the kon turned out to be 342000 M⁻¹ s⁻¹. For the same molecule, the “KD 5(-)/7(+)” value in assay [2] was 7.54. For the same molecule, in assay [3], the Kd is 5.17 nM, the koff was determined as 0.00611 s⁻¹ and the kon came out at 1.18e+06 M⁻¹ s⁻¹. In addition, the “KD 5(+)/7(+)” value in assay [4] was found to be 29.2.

B2: C1_IPN92H0282-SG4GK/IPN93L0024-SK1 (antibody, human IgG4 S228P, kappa, name in Kabat numbering, V domains shown)
VH: EVMLVESGGGLVKPGGSLRLSCAASGFTFSNYAMSWVRQAPGKGLEWVATISSGGSHTYELDSVDERFTISRDNSKDTLYLQMNSLRAEDTALYYCARLFTKHAMDYWGQGTLVTVSS
VL: QIVLTQSPATLSLSPGERATLSCTASSSVSSSYLHWYQQKPGKAPKLWIYSTSNLASGVPSRFSGSGSGTDYTLTISSLQPEDFATYYCHQYYRLHPITFGQGTKLEIKR
notes: Substitutions from IPN009VH2, Kabat numbering; also called IPN92H0282/IPN93L0024
As for B2, in assay [1], the Kd amounted to 18 nM, the koff amounted to 0.00998 s⁻¹ and the kon stood at 553000 M⁻¹ s⁻¹. Further, the “KD 5(-)/7(+)” value in assay [2] was determined as 5.18. Moreover, in assay [3], the Kd amounted to 8.55 nM, the koff worked out at 0.00327 s⁻¹ and the kon is 382000 M⁻¹ s⁻¹. The “KD 5(+)/7(+)” value in assay [4] stood at 10.9.

B3: C1_IPN92H0288-SG4GK/IPN93L0212-SK1 (antibody, human IgG4 S228P, kappa, name in Kabat numbering, V domains shown)
VH: EVMLVESGGGLVKPGGSLRLSCAASGFTFSNYAMSWVRQAPGKGLEWVATISSGGSHTYELDSVDGRFTISRDNSKDTLYLQMNSLRAEDTALYYCARLFTKHAMDYWGQGTLVTVSS
VL: QIVLTQSPATLSLSPGERATLSCTASSEVSESRLHWYQQKPGKAPKLWIYSTSNLASGVPSRFSGSGSGTDYTLTISSLQPEDFATYYCHQYYRLHPITFGQGTKLEIKR
notes: VL substitutions from IPN009VK3, Kabat numbering; also called IPN92H0288/IPN93L0212
For the molecule B3, in assay [1], the Kd is 21 nM, the koff stood at 0.0198 s⁻¹ and the kon was determined as 945000 M⁻¹ s⁻¹. Besides, the “KD 5(-)/7(+)” value in assay [2] stood at 3.75. Besides, in assay [3], the Kd was found to be 6.79 nM, the koff was 0.00533 s⁻¹ and the kon is 784000 M⁻¹ s⁻¹. For the same molecule, the “KD 5(+)/7(+)” value in assay [4] came to 11.6.

B4: C1_IPN92H0281-SG4GK/IPN93L0091-SK1 (antibody, human IgG4 S228P, kappa, name in Kabat numbering, V domains shown)
VH: EVMLVESGGGLVKPGGSLRLSCAASGFTFSNYAMSWVRQAPGKGLEWVATISSGGSKTYELDSVDERFTISRDNSKDTLYLQMNSLRAEDTALYYCARLFTKHAMDYWGQGTLVTVSS
VL: QIVLTQSPATLSLSPGERATLSCTASSSVSSSRLHWYQQKPGKAPKLWIYSTSNLASGVPSRFSGSGSGTDYTLTISSLQPEDFATYYCHQYYRLHPITFGQGTKLEIKR
notes: Substitutions from IPN009VH2 / IPN009VK3, Kabat numbering; also called IPN92H0281/IPN93L0091
B4: in assay [1], the Kd worked out at 11.3 nM, the koff came to 0.00707 s⁻¹ and the kon was 625000 M⁻¹ s⁻¹. Moreover, the “KD 5(-)/7(+)” value in assay [2] was determined as 0.82. For the same molecule, in assay [3], the Kd came out at 3.88 nM, the dissociation rate constant (koff) is 0.00227 s⁻¹ and the kon turned out to be 585000 M⁻¹ s⁻¹. Further, the “KD 5(+)/7(+)” value in assay [4] was determined as 2.4.

B5: C1_IPN92H0281-SG4GK/IPN93L0024-SK1 (antibody, human IgG4 S228P, kappa, name in Kabat numbering)
heavy: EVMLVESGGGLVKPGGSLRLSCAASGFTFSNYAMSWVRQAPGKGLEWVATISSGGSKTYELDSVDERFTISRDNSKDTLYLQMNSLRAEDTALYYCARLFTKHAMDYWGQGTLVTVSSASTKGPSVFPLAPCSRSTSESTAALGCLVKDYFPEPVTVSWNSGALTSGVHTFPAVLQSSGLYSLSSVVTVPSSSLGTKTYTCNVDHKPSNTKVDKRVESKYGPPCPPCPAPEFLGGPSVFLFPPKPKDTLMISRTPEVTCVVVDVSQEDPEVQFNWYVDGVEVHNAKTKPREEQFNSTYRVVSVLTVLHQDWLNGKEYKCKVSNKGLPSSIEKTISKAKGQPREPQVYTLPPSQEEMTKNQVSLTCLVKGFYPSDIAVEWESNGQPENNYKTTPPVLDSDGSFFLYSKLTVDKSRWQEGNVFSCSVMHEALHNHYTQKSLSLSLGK
light: QIVLTQSPATLSLSPGERATLSCTASSSVSSSYLHWYQQKPGKAPKLWIYSTSNLASGVPSRFSGSGSGTDYTLTISSLQPEDFATYYCHQYYRLHPITFGQGTKLEIKRTVAAPSVFIFPPSDEQLKSGTASVVCLLNNFYPREAKVQWKVDNALQSGNSQESVTEQDSKDSTYSLSSTLTLSKADYEKHKVYACEVTHQGLSSPVTKSFNRGEC
notes: Substitutions from IPN009VH2, Kabat numbering; also called IPN92H0281/IPN93L0024
Consider B5, for which, in assay [1], the Kd was determined as 23.6 nM, the koff was 0.024 s⁻¹ and the kon was determined as 1.02e+06 M⁻¹ s⁻¹. Besides, the “KD 5(-)/7(+)” value in assay [2] is 1.98. For the same molecule, in assay [3], the equilibrium dissociation constant (Kd) came out at 4.98 nM, the koff came to 0.003 s⁻¹ and the kon was 602000 M⁻¹ s⁻¹. Further, the “KD 5(+)/7(+)” value in assay [4] turned out to be 9.4.

B6: C1_IPN92H0286-SG4GK/IPN93L0205-SK1 (antibody, human IgG4 S228P, kappa, name in Kabat numbering)
heavy: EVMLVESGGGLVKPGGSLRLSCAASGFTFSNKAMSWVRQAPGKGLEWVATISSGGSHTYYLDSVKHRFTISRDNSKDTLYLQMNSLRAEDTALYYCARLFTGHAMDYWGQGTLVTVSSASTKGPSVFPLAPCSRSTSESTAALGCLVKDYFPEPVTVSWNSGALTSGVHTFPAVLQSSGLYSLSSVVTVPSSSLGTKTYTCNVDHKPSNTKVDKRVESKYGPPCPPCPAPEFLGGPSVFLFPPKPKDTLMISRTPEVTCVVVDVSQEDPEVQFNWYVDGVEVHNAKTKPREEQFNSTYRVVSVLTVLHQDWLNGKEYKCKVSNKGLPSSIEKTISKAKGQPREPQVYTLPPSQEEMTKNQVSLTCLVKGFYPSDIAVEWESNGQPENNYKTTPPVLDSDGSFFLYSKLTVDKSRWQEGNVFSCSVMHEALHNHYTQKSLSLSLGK
light: QIVLTQSPATLSLSPGERATLSCTASSSVSSSRLHWYQQKPGKAPKLWIYSTSNLASGVPSRFSGSGSGTDYTLTISSLQPEDFATYYCHQYHRHPPITFGQGTKLEIKRTVAAPSVFIFPPSDEQLKSGTASVVCLLNNFYPREAKVQWKVDNALQSGNSQESVTEQDSKDSTYSLSSTLTLSKADYEKHKVYACEVTHQGLSSPVTKSFNRGEC
notes: Substitutions from IPN009VH2 / IPN009VK3, Kabat numbering; also called IPN92H0286/IPN93L0205
With B6, in assay [1], the Kd came to 6.57 nM, the koff came to 0.00346 s⁻¹ and the kon came to 527000 M⁻¹ s⁻¹. Also, the “KD 5(-)/7(+)” value in assay [2] was 2.94. Also, in assay [3], the Kd was 4.65 nM, the koff was 0.00477 s⁻¹ and the kon turned out to be 1.03e+06 M⁻¹ s⁻¹. Further, the “KD 5(+)/7(+)” value in assay [4] was found to be 4.2.

B7: C1_IPN92H0282-SG4GK/IPN93L0091-SK1 (antibody, human IgG4 S228P, kappa, name in Kabat numbering, V domains shown)
VH: EVMLVESGGGLVKPGGSLRLSCAASGFTFSNYAMSWVRQAPGKGLEWVATISSGGSHTYELDSVDERFTISRDNSKDTLYLQMNSLRAEDTALYYCARLFTKHAMDYWGQGTLVTVSS
VL: QIVLTQSPATLSLSPGERATLSCTASSSVSSSRLHWYQQKPGKAPKLWIYSTSNLASGVPSRFSGSGSGTDYTLTISSLQPEDFATYYCHQYYRLHPITFGQGTKLEIKR
notes: Substitutions from IPN009VH2 / IPN009VK3, Kabat numbering; also called IPN92H0282/IPN93L0091
Take B7: in assay [1], the Kd was 16.9 nM, the koff amounted to 0.00755 s⁻¹ and the kon was 445000 M⁻¹ s⁻¹. The “KD 5(-)/7(+)” value in assay [2] came out at 1.13. In assay [3], the Kd is 2.21 nM, the koff worked out at 0.00148 s⁻¹ and the kon is 670000 M⁻¹ s⁻¹. Moreover, the “KD 5(+)/7(+)” value in assay [4] was found to be 8.6.
